No end group written: not given here.
T1: human Factor XIIa (human, UniProt P00748)
T1 sequence 1: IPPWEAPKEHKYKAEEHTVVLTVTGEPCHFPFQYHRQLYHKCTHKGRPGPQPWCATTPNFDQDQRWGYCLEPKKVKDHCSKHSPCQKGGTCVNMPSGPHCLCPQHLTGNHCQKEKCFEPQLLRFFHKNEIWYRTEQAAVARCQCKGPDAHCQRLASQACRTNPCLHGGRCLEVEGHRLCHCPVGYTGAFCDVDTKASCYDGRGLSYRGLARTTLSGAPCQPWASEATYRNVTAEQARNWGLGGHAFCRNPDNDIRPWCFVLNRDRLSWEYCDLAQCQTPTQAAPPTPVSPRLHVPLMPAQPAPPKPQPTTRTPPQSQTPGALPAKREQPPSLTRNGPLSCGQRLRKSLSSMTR
T1 sequence 2: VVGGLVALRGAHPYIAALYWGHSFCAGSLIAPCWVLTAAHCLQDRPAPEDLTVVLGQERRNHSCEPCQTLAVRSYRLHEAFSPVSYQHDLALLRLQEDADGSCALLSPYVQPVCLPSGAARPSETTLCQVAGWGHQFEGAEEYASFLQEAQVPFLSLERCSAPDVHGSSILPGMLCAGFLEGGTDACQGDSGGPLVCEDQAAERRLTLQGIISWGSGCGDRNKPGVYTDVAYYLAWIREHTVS


Experiments:
[1] = target: TF-FVIIa complex in the PT assay (full length TF on 293 cell membranes with the Factor VII/VIIa of normal … (human, UniProt P08709)); assay: cell-based or functional assay
[2] = target: human activated protein C (human, UniProt P04070); assay: chromogenic enzyme inhibition assay, apparent Ki*
human thrombin = human thrombin (human, UniProt P00734); assay: chromogenic enzyme inhibition assay, apparent Ki*
human Factor Xa = human Factor Xa (human, UniProt P00742); assay: chromogenic enzyme inhibition assay, apparent Ki*
human Factor XIIa = target: T1, human Factor XIIa; assay: chromogenic enzyme inhibition assay, apparent Ki*
human plasma kallikrein = human plasma kallikrein (human, UniProt P03952); assay: chromogenic enzyme inhibition assay, apparent Ki* (value in FIG. 4)
Description: (§1) Aliquots (25 μL) from each well of a microtiter plate containing the serially diluted inhibitors were transferred into new microtiter plates, each containing a different protease (100 μL) in the appropriate buffer. The proteases tested (protease concentration, buffer, substrate) were FVIIa (10 nM, Buffer A, 0.7 mM S2366), FXIa (1.0 nM, Buffer B containing 1 mg/ml BSA, 0.7 mM S2366), plasma kallikrein (3.5 nM, Buffer B, 0.5 mM S2302), and plasmin (15 nM, Buffer B, 1 mM S2251). Buffer A contains 50 mM Tris, pH 7.5, 100 mM NaCl, 10 mM CaCl_2, 0.5% BSA, 60 nM TF_1-243, and 1 mM CHAPS (Sigma). Buffer B contains 50 mM Tris, pH 7.5, 100 mM NaCl, 2 mM CaCl_2 and 0.005% Triton X-100.

human plasmin = human plasmin (human, UniProt P00747); assay: chromogenic enzyme inhibition assay (plasmin 15 nM, S2251), apparent Ki*
Description: as §1

Binder	fold prolongation of clotting time, PT assay in normal human plasma [1]	binding result [2]	binding result (human Factor XIIa)	other results
IV-32B (designed binder) VREVCSEQAEPGPCKALMKRWYFDVTEGKCAPFYYGGCYGNRNNFDTEEYCAAVCGSA	1.4 fold prolongation at 40 µM inhibitor	–	–	–
APPI, Alzheimer's amyloid β-protein precursor inhibitor (other, not fully specified (bridges); ends and bridges not checked) VREVCSEQAETGPCRAMISRWYFDVTEGKCAPFFYGGCGGNRNNFDTEEYCMAVCGSA	1.5 fold prolongation at 40 µM inhibitor	no binding (tested: >10 µM)	no binding (tested: >10 µM)	Ki [2]: > 10 µM; Ki (human thrombin): > 10 µM; binding result (human thrombin): no binding (tested: >10 µM); Ki (human Factor Xa): > 10 µM; binding result (human Factor Xa): no binding (tested: >10 µM); Ki (human Factor XIIa): > 10 µM
TF7I-C (designed binder, ends and bridges not checked; cysteine pairing not given here) VREVCSEQAEPGPCRALILRWYFDVTEGKCAPFFYGGCYGNRNNFDTEEYCAAVCGSA	–	no binding (tested: >10 µM)	no binding (tested: >10 µM)	binding result (human plasma kallikrein): binds; Ki (human plasmin): 0.04 µM
IV-49C (designed binder) VREVCSEQAEPGPCRALMKRWYFDVTEGKCAPFIYGGCYGNRNNFDTEEYCAAVCGSA	2.5 fold prolongation at 40 µM inhibitor	–	–	–
IV-54C (designed binder) VREVCSEQAEPGPCRALMKRWYFDVTEGKCAPFVYGGCYGNRNNFDTEEYCAAVCGSA	2.1 fold prolongation at 40 µM inhibitor	–	–	–
